1 molecule from PMC11315929, “A novel role for the peptidyl-prolyl cis-trans isomerase Cyclophilin A in DNA-repair following replication fork stalling via the MRE11-RAD50-NBS1 complex” (EMBO Reports, 2024) can be followed below.

This test deals with T1, recombinant human Strep-tagged CYPA (human, UniProt P62937 1-165).
T1 construct: Cyclophilin A (CYPA, PPIA), human; The methods also call such proteins Streptavidin-tagged; also called CYPA-Strep; source: E. coli BL21(DE3), purified (Strep-Tactin Superflow Plus cartridge, PD10 desalting)
Put plainly: pull-down; recombinant Strep-tagged CYPA and HIS-tagged FHA-BRCT1 combined, 30 min 4 °C; MagStrep type3 XT beads 1 h 4 °C in 100 mM Tris-Cl pH 8, 150 mM NaCl, 1 mM EDTA, 0.5 mg/ml BSA; elution with 50 mM biotin; western blot; beads alone as control. As to conditions: both partners purified.

T1 sequence (P62937 whole entry): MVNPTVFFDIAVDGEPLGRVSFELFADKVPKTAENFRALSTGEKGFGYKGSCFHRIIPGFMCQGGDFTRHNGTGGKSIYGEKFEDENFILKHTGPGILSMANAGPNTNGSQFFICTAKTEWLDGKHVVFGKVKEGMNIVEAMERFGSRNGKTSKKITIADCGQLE

B1: recombinant HIS-tagged human NBS1 peptide composed of FHA-linker-BRCT1 (aa 1-182), wild type (domain or fragment, UniProt O60934 1-182, looked up)
chain: MWKLLPAAGPAGGEPYRLLTGVEYVVGRKNCAILIENDQSISRNHAVLTANFSVTNLSQTDEIPVLTLKDNSKYGTFVNEEKMQNGFSRTLKSGDGITFGVFGSKFRIEYEPLVACSSCLDVSGKTALNQAILQLGGFTVNNWTEECTHLVMVSVKVTIKTICALICGRPIVKPEYFTEFLK
notes: NBS1 (nibrin), human, UniProt O60934, FHA-linker-BRCT1, aa 1-182; also called WT HIS-tagged FHA-BRCT1; NBS1 FHA-BRCT1 peptide; source: E. coli BL21(DE3), purified (HiTrap TALON Crude, PD10 desalting)
Turning to B1, the binding result is reported as “binds”.
